Laboratory results from the supplement of paper PMC9112550, “Optimization of the antimicrobial peptide Bac7 by deep mutational scanning” (BMC Biology, 2022).

System: Escherichia coli TOP10
Assay: shrunken log2 fold change of peptide-encoding DNA abundance (4.5 h post-induction vs induction); higher = less antimicrobial activity (less host growth inhibition)
Conditions: time post-induction: 4.5 h; library: site-saturation at positions 5, 18, 19, 20
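Also: peptides expressed intracellularly from a pBAD plasmid library in pooled LB shake-flask culture, induced with 0.3% L-arabinose, DNA abundance read by NGS, three biological replicates, DESeq2 with apeglm shrinkage.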

RRIRLRPPRLPRPRPRPGPHPRP
shrunken log2 fold change: -0.0887

RRIRKRPPRLPRPRPRPQLKPRP
shrunken log2 fold change: 0.275

RRIRVRPPRLPRPRPRPPLNPRP
shrunken log2 fold change: -0.098

RRIRWRPPRLPRPRPRPIFCPRP
shrunken log2 fold change: 0.067

RRIRGRPPRLPRPRPRPQNSPRP
shrunken log2 fold change: -0.506

RRIRRRPPRLPRPRPRPKQIPRP
shrunken log2 fold change: 0.289

RRIRHRPPRLPRPRPRPCHDPRP
shrunken log2 fold change: 0.0948

RRIRQRPPRLPRPRPRPQEGPRP
shrunken log2 fold change: 0.0274

RRIRTRPPRLPRPRPRPAEAPRP
shrunken log2 fold change: 0.148

RRIRFRPPRLPRPRPRPLQAPRP
shrunken log2 fold change: 0.285

RRIRCRPPRLPRPRPRPQCNPRP
shrunken log2 fold change: -0.5

RRIRKRPPRLPRPRPRPCPLPRP
shrunken log2 fold change: -0.24

RRIRNRPPRLPRPRPRPKERPRP
shrunken log2 fold change: 0.0296

RRIRWRPPRLPRPRPRPGIVPRP
shrunken log2 fold change: 0.585

RRIRRRPPRLPRPRPRPTCVPRP
shrunken log2 fold change: 0.455

RRIRHRPPRLPRPRPRPTWYPRP
shrunken log2 fold change: -0.674

RRIRNRPPRLPRPRPRPGMSPRP
shrunken log2 fold change: -0.238

RRIRVRPPRLPRPRPRPGYYPRP
shrunken log2 fold change: -0.248

RRIRMRPPRLPRPRPRPNYAPRP
shrunken log2 fold change: -0.193

RRIRMRPPRLPRPRPRPGTIPRP
shrunken log2 fold change: 0.228

RRIRKRPPRLPRPRPRPCEQPRP
shrunken log2 fold change: 0.324

RRIRHRPPRLPRPRPRPCMGPRP
shrunken log2 fold change: -0.194

RRIRYRPPRLPRPRPRPDLPPRP
shrunken log2 fold change: -0.0756

RRIRERPPRLPRPRPRPQLRPRP
shrunken log2 fold change: -0.00323

RRIRSRPPRLPRPRPRPYYAPRP
shrunken log2 fold change: -0.551

RRIRVRPPRLPRPRPRPPHYPRP
shrunken log2 fold change: 0.1

RRIRIRPPRLPRPRPRPLQEPRP
shrunken log2 fold change: -0.0919

RRIRNRPPRLPRPRPRPDYYPRP
shrunken log2 fold change: -1.4

RRIRYRPPRLPRPRPRPSQTPRP
shrunken log2 fold change: -0.0989

RRIRHRPPRLPRPRPRPFRCPRP
shrunken log2 fold change: -0.556

RRIRARPPRLPRPRPRPQKKPRP
shrunken log2 fold change: -0.0278

RRIRPRPPRLPRPRPRPLPPPRP
shrunken log2 fold change: 0.36

RRIRHRPPRLPRPRPRPGEVPRP
shrunken log2 fold change: 0.0396

RRIRDRPPRLPRPRPRPDVSPRP
shrunken log2 fold change: -0.00965

RRIRMRPPRLPRPRPRPNFPPRP
shrunken log2 fold change: -0.186

RRIRWRPPRLPRPRPRPIDEPRP
shrunken log2 fold change: 0.0867

RRIRWRPPRLPRPRPRPKADPRP
shrunken log2 fold change: 0.353

RRIRDRPPRLPRPRPRPWLVPRP
shrunken log2 fold change: -0.117

RRIRRRPPRLPRPRPRPRNFPRP
shrunken log2 fold change: 0.306

RRIRDRPPRLPRPRPRPWQIPRP
shrunken log2 fold change: 0.0319

RRIRLRPPRLPRPRPRPPTLPRP
shrunken log2 fold change: 0.4

RRIRSRPPRLPRPRPRPCCPPRP
shrunken log2 fold change: -0.0457

RRIRLRPPRLPRPRPRPNDGPRP
shrunken log2 fold change: -0.127

RRIRDRPPRLPRPRPRPITCPRP
shrunken log2 fold change: -0.403

RRIRYRPPRLPRPRPRPQTIPRP
shrunken log2 fold change: -0.0196

RRIRPRPPRLPRPRPRPEKLPRP
shrunken log2 fold change: 0.226

RRIRERPPRLPRPRPRPIPTPRP
shrunken log2 fold change: 0.0239

RRIRNRPPRLPRPRPRPYMSPRP
shrunken log2 fold change: -0.019

RRIRDRPPRLPRPRPRPDIKPRP
shrunken log2 fold change: 0.543

RRIRNRPPRLPRPRPRPFEEPRP
shrunken log2 fold change: 0.0129

RRIRIRPPRLPRPRPRPIHEPRP
shrunken log2 fold change: -0.316

RRIRIRPPRLPRPRPRPYDPPRP
shrunken log2 fold change: -0.0306

RRIRMRPPRLPRPRPRPMKEPRP
shrunken log2 fold change: -0.0707

RRIRYRPPRLPRPRPRPETGPRP
shrunken log2 fold change: -0.0691

RRIRNRPPRLPRPRPRPAILPRP
shrunken log2 fold change: -0.101

RRIRTRPPRLPRPRPRPNCQPRP
shrunken log2 fold change: -0.369

RRIRMRPPRLPRPRPRPCTMPRP
shrunken log2 fold change: -0.218

RRIRDRPPRLPRPRPRPHFIPRP
shrunken log2 fold change: -0.0922

RRIRARPPRLPRPRPRPVFTPRP
shrunken log2 fold change: -0.0343

RRIRARPPRLPRPRPRPWIYPRP
shrunken log2 fold change: -0.647
